Patent publication US20250236673A1 (Ablynx, published 2025)
Residue numbers refer to the chain shown, from its start. Numbers in names are those of the source. Where “and” joins values, the source holds several entries; their conditions need not be identical. Equal entries are not always repeated.

B1: T031200256 (VHH)
VHH: DVQLVESGGGVVQPGGSLRLSCTASGFTFSTADMGWFRQAPGKGREFVARISGIDGTTYYDEPVKGRFTISRDKSKNTVYLQMNSLKPEDTALYYCRSPRYADQWSAYDYWGQGTLVTVSS
B2: T031200263 (VHH)
VHH: B1 VHH with R19K, R45K, R72K, Q113K
B3: A016600058 (VHH)
VHH: B1 VHH with K74N, K87R
B4: T031200261 (VHH)
VHH: B1 VHH with R19K, R72K, Q113K
B5: T031200259 (VHH)
VHH: B1 VHH with R19K, R72K, K74N, Q113K
B6: T031200260 (VHH)
VHH: B1 VHH with R19K, Q113K
B7: T031200262 (VHH)
VHH: B1 VHH with R19K, R45K, Q113K
B8: T031200257 (VHH)
VHH: B1 VHH with R19K
B9: T031200258 (VHH)
VHH: B1 VHH with R19K, K74N, Q113K
B10: A044301298 (VHH)
VHH: EVQLVESGGGVVQPGGSLRLSCAASGFTFEDYAIGWFRQAPGREREEVSCIRTYDEQTYYADSVRGRFTISRDNARNTVSLQMNSLRPEDTALYYCAAGSYYACAYYSRPDPSEGHVDLDYWGQGTLVTVSS
B11: A044301152 (VHH)
VHH: B10 VHH with R43K, R65K, R76K
B12: T028501805 (VHH)
VHH: EVQLVESGGGVVQPGGSLRLSCAASGFTFRSFGMSWVRQAPGKGPEWVSSISGSGSDTLYADSVKGRFTISRDNSKNTLYLQMNSLRPEDTALYYCTIGGSLSRSSQGTLVTVSS
notes: also called ALB00622; HSA006A06(K83R)
B13: T028501789 (VHH)
VHH: EVQLVESGGGVVQPGGSLRLSCAASGLTFSTYTMGWFRQAPGKEREFVAAIIWSGSNTYYADSVKGRFTISRDNAKNTVYLQMNSLRPEDTALYYCAAQHFGPIGLTTRGYHYWGQGTLVTVSS
notes: also called A031500384; A0315007E07(L11V, S76N, N82bS, E83R, V89L, H91Y, N101H)
B14: T039400046 (VHH)
VHH: B12 VHH with K43R, K65R, K76R
notes: Single lysine at the C-terminus; also called HIS6-ENLYFQS-5GS-HSA006A06(K43R, K64R, K75R, K83R)-K
B15: T039400041 (VHH)
VHH: B12 VHH with K43R, K76R
notes: Single lysine at 64; also called HIS6-ENLYFQS-5GS-HSA006A06(K43R, K75R, K83R)
B16: T039400045 (VHH)
VHH: B12 VHH with K43R, P45K, K65R, K76R
notes: Single lysine at 45; also called HIS6-ENLYFQS-5GS-HSA006A06(K43R, P45K,K64R, K75R, K83R)
B17: T039400039 (VHH)
VHH: B12 VHH with K43R, K65R
notes: Single lysine at 75; also called HIS6-ENLYFQS-5GS-HSA006A06(K43R, K64R, K83R)
B18: T039400043 (VHH)
VHH: B12 VHH with K65R, K76R
notes: Single lysine at 43; also called HIS6-ENLYFQS-5GS-HSA006A06(K64R, K75R, K83R)
B19: T039400044 (VHH)
VHH: B12 VHH with K43R, K65R, K76R, Q107K
notes: also called HIS6-ENLYFQS-5GS-HSA006A06(K43R, K64R, K75R, K83R, Q105K)
B20: T039400042 (VHH)
VHH: B12 VHH with K43R, K65R, N74K, K76R
notes: Single lysine at 73; also called HIS6-ENLYFQS-5GS-HSA006A06(K43R, K64R, N73K, K75R, K83R)
B21: T039400040 (VHH)
VHH: B12 VHH with K43R, K65R, K76R
notes: No lysine; also called HIS6-ENLYFQS-5GS-HSA006A06(K43R, K64R, K75R, K83R)
B22: T039400054 (VHH)
VHH: B13 VHH with K43R, K65R, K76R
notes: Single lysine at the C-terminus; also called HIS6-ENLYFQS-5GS-A0315007E07(K43R, K64R, K75R,)-K
B23: T039400053 (VHH)
VHH: B13 VHH with K65R, K76R
notes: Single lysine at 43; 24 used; also called HIS6-ENLYFQS-5GS-A0315007E07(K64R, K75R,)
B24: T039400049 (VHH)
VHH: B13 VHH with K43R, K65R, K76R, Q116K
notes: also called HIS6-ENLYFQS-5GS-A0315007E07(K43R, K64R, K75R, Q105K)
B25: T039400050 (VHH)
VHH: B13 VHH with K43R, K65R, K76R
notes: No lysine; also called HIS6-ENLYFQS-5GS-A0315007E07(K43R, K64R, K75R)
B26: T039400047 (VHH)
VHH: B13 VHH with K43R, K76R
notes: Single lysine at 64; also called HIS6-ENLYFQS-5GS-A0315007E07(K43R, K75R)
B27: T039400052 (VHH)
VHH: B13 VHH with K43R, K65R, N74K, K76R
notes: Single lysine at 73; also called HIS6-ENLYFQS-5GS-A0315007E07K43R, K64R, N73K, K75R
B28: T039400048 (VHH)
VHH: B13 VHH with K43R, R45K, K65R, K76R
notes: Single lysine at 45; also called HIS6-ENLYFQS-5GS-A0315007E07(K43R, R45K, K64R, K75R)
B29: T028501834 (VHH)
VHH: B12 VHH with K65R
notes: K64R vs precursor T028501805; also called HSA006A06(K64R, K83R)
B30: T028501833 (VHH)
VHH: B12 VHH with K43R
notes: K43R vs precursor T028501805; also called HSA006A06(K43R, K83R)
B31: T028501816 (VHH)
VHH: B12 VHH with K76A
notes: K75A vs precursor T028501805; also called HSA006A06(K75A, K83R)
B32: T028501836 (VHH)
VHH: B12 VHH with K76H
B33: T028501835 (VHH)
VHH: B12 VHH with K65A
notes: K64A vs precursor T028501805; also called HSA006A06(K64A, K83R)

Each binder was assayed against soluble human TNFα (human, UniProt P01375 77-233) (assay: cell-based or functional assay).
Chain of soluble human TNFα (P01375 77-233 limits assumed): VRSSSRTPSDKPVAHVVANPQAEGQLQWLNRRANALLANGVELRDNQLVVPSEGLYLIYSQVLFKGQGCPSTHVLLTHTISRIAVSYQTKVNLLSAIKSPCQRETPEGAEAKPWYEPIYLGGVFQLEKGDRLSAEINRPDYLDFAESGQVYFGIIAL

In order of falling “IC50, inhibition of human TNFα-induced NFkB activation (HEK293_NFkB-NLucP Nano luciferase reporter)” value:
1. B2  1.92e-10 M (inferred; column head prints 'Average of ka (1/Ms)')
2. B4  1.91e-10 M (inferred; column head prints 'Average of ka (1/Ms)')
3. B7  6.43e-11 M (inferred; column head prints 'Average of ka (1/Ms)')
4. B9  6.09e-11 M (inferred; column head prints 'Average of ka (1/Ms)')
5. B6  5.34e-11 M (inferred; column head prints 'Average of ka (1/Ms)')
6. B8  4.93e-11 M (inferred; column head prints 'Average of ka (1/Ms)')
7. B5  4.82e-11 M (inferred; column head prints 'Average of ka (1/Ms)')
8. B1  4.3e-11 M (inferred; column head prints 'Average of ka (1/Ms)')

B3 was tested, and the “IC50, inhibition of human TNFα-induced NFkB activation (HEK293_NFkB-NLucP Nano luciferase reporter)” value was 3.86e-11 M (inferred; column head prints 'Average of ka (1/Ms)') and 2.97e-11 M (inferred; column head prints 'Average of ka (1/Ms)').

Each binder was assayed against CD8 (assay: kinetics, method not stated in Example 3).

In order of falling Kd:
1. B11  0.122 nM
2. B10  0.113 nM

In order of falling koff:
1. B10  0.000418 s⁻¹
2. B11  0.000412 s⁻¹

In order of falling kon:
1. B10  3.69e+06 M⁻¹ s⁻¹
2. B11  3.37e+06 M⁻¹ s⁻¹

These binders were tested against T1, human serum albumin (human, UniProt P02768 25-609) (assay: SPR on HSA (Example 2; same values as in Table 13)).
T1 construct: Immobilised by amine coupling on a C1 chip; also called HSA
T1 sequence (P02768 25-609 limits assumed): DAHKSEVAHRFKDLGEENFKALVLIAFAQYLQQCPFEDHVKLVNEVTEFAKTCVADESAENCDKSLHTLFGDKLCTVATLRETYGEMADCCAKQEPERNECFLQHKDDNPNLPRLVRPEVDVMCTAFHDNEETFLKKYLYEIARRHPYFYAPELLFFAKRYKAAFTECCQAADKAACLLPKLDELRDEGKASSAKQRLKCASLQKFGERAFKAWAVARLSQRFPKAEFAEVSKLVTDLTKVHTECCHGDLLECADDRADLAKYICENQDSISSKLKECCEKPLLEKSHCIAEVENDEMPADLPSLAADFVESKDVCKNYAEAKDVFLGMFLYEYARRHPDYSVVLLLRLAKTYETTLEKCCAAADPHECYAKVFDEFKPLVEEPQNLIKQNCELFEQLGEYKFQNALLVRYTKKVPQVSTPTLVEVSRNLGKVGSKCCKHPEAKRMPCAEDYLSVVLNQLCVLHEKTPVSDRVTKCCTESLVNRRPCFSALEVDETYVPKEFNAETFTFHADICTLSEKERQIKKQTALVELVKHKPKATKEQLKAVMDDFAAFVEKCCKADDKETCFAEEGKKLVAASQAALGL

B12 was tested, and the Kd was 1.28 nM.

Work on B12 yielded a koff of 0.000992 s⁻¹.

B12 showed a kon of 772000 M⁻¹ s⁻¹.

These binders were tested against T2, recombinant human CEACAM5 (human, UniProt P06731 35-685, limits assumed) (assay: SPR on CEACAM5 (Example 2; same values as in Table 13)).
T2 construct: Immobilised by amine coupling on a CM5 chip
T2 sequence (looked up): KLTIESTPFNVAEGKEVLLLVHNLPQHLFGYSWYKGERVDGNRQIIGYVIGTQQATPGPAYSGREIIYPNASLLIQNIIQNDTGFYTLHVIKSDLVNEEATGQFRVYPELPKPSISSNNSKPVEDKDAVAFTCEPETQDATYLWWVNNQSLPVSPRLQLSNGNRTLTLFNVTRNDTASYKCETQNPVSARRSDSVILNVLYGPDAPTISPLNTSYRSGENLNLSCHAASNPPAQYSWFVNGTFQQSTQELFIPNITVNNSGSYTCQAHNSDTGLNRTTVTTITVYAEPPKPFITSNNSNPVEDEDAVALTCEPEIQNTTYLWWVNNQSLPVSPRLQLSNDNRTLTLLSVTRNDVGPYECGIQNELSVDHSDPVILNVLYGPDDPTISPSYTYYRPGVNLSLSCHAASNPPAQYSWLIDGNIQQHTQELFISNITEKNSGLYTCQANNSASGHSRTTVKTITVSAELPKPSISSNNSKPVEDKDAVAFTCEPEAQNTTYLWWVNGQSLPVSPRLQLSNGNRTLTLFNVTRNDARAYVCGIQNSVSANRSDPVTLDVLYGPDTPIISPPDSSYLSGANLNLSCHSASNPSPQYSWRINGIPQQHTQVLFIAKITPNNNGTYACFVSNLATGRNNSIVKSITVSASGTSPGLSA

B13 showed a Kd of 1.24 nM.

B13 gave a koff of 0.000885 s⁻¹.

For B13, the kon was 716000 M⁻¹ s⁻¹.

What follows are binders tested against T1, human serum albumin (assay: SPR on HSA (Example 2; method not restated, as Example 1)).

In order of falling Kd:
1. B20  89.6 nM
2. B16  8.59 nM
3. B15  8.01 nM
4. B17  7.51 nM
5. B18  6.42 nM
6. B19  6.42 nM
7. B21  6.22 nM
8. B14  5.95 nM

In order of falling koff:
1. B20  0.0178 s⁻¹
2. B16  0.00263 s⁻¹
3. B15  0.00232 s⁻¹
4. B21  0.00231 s⁻¹
5. B19  0.00229 s⁻¹
6. B17  0.00226 s⁻¹
7. B18  0.00226 s⁻¹
8. B14  0.00224 s⁻¹

In order of rising kon:
1. B20  198000 M⁻¹ s⁻¹
2. B15  289000 M⁻¹ s⁻¹
3. B17  301000 M⁻¹ s⁻¹
4. B16  306000 M⁻¹ s⁻¹
5. B18  353000 M⁻¹ s⁻¹
6. B19  357000 M⁻¹ s⁻¹
7. B21  371000 M⁻¹ s⁻¹
8. B14  377000 M⁻¹ s⁻¹

These binders were tested against T2, recombinant human CEACAM5 (assay: SPR on CEACAM5 (Example 2; method not restated, as Example 1)).

In order of rising Kd:
1. B28  0.874 nM
2. B24  0.914 nM
3. B26  0.915 nM
4. B23  0.943 nM
5. B25  0.952 nM
6. B22  1.01 nM
7. B27  1.43 nM

In order of rising koff:
1. B26  0.000451 s⁻¹
2. B28  0.000504 s⁻¹
3. B23  0.000516 s⁻¹
4. B22  0.000526 s⁻¹
5. B25  0.000526 s⁻¹
6. B24  0.000536 s⁻¹
7. B27  0.000633 s⁻¹

In order of falling kon:
1. B24  586000 M⁻¹ s⁻¹
2. B28  577000 M⁻¹ s⁻¹
3. B25  553000 M⁻¹ s⁻¹
4. B23  547000 M⁻¹ s⁻¹
5. B22  522000 M⁻¹ s⁻¹
6. B26  493000 M⁻¹ s⁻¹
7. B27  441000 M⁻¹ s⁻¹

Each binder was assayed against T2, recombinant human CEACAM5 (assay: SPR Biacore 8K+, CEACAM5 amine-coupled on CM5, ISVD analyte, 1:1 fit).

With B13 the Kd was 1.24 nM.

Work on B13 yielded a koff of 0.000885 s⁻¹.

B13 showed a kon of 716000 M⁻¹ s⁻¹.

What follows are binders tested against T1, human serum albumin (assay: SPR Biacore 8K+, HSA amine-coupled on C1 chip, ISVD analyte, 1:1 fit).

In order of falling Kd:
1. B33  2.06 nM
2. B32  1.35 nM
3. B31  1.31 nM
4. B30  1.29 nM
5. B12  1.28 nM
6. B29  1.11 nM

In order of rising koff:
1. B30  0.000906 s⁻¹
2. B12  0.000992 s⁻¹
3. B31  0.00105 s⁻¹
4. B33  0.00108 s⁻¹
5. B29  0.00112 s⁻¹
6. B32  0.00114 s⁻¹

In order of falling kon:
1. B29  1.01e+06 M⁻¹ s⁻¹
2. B32  839000 M⁻¹ s⁻¹
3. B31  799000 M⁻¹ s⁻¹
4. B12  772000 M⁻¹ s⁻¹
5. B30  703000 M⁻¹ s⁻¹
6. B33  524000 M⁻¹ s⁻¹
